Test results reported in patent US7803572B2, “Protease detection assay” (Atlas Genetics, Ltd., priority 2003, dated 2010).

Legend:
[1] = target: T1, porcine stomach mucosa pepsin (Sus scrofa, UniProt P00791); test: Digestion of Fc-BSA with pepsin, differential pulse voltammetry; type: biochemical
T1 construct: purchased Sigma; host or cells: porcine stomach mucosa
Method: (§1) Protease assays were performed as follows unless stated otherwise. […] Samples were incubated at 37° C. for 1 hour.
A digestion of Fc-BSA with pepsin was carried out as described above. […] The positive reaction has a peak position of 537 mV and a peak height of 8.90×10^−8 A; the no-pepsin control reaction has a peak position of 522 mV and a peak height of 4.19×10^−8 A.

porcine pancreas trypsin = target: T2, porcine pancreas trypsin (Sus scrofa, UniProt P00761); test: Digestion of labelled protein with trypsin, differential pulse voltammetry; type: biochemical
T2 construct: purchased Sigma; host or cells: porcine pancreas
Method: as §1
A digestion of Fc-BSA with trypsin was carried out as described above. […] The positive reaction has a peak position of 435 mV and a peak height of 4.58×10^−7 A; the no trypsin control reaction has a peak position of 432 mV and a peak height of 2.55×10^−8 A.
A digestion of unlabelled BSA with trypsin was carried out in the same manner as for the labelled molecules as described above. The differential pulse voltammogram results are shown in FIG. 10 in which (a) is the trace for a no-trypsin control reaction and (b) is the trace for trypsin BSA reaction.
A digestion of FcU-BSA with trypsin was carried out as described above. […] The positive reaction has a peak position of 97 mV and a peak height of 5.01×10^−7 A; there was no peak in the no-trypsin control reaction. […]
Five digestions of Fc-BSA with trypsin were carried out using the protocol described above. As described in the general protocol, 2 μl of enzyme was used for each 200 μl reaction; for reaction (i) 10 mg/ml enzyme solution was used; reaction (ii): 1 mg/ml; reaction (iii) 0.1 mg/ml; reaction (iv) 0.01 mg/ml and reaction (v) was a no-trypsin control. The differential pulse voltammogram results are shown in FIG. 14 with baseline correction.
Five digestions of Fc-BSA with trypsin were carried out using the protocol described above. In reaction (i) the incubation at 37° was carried out for 60 minutes, in reaction (ii) for 15 minutes, in reaction (iii) for 5 minutes, in reaction (iv) for 2 minutes and reaction (v) was a 0 minutes no-trypsin control. The differential pulse voltammogram results are shown in FIG. 15 with baseline correction.

[2] = positive reaction, 10 mM HCl pH 2.0, 37° C. for 1 hour
[3] = Example 6 reaction (i): 2 μl of 10 mg/ml enzyme solution
[4] = Example 6 reaction (ii): 1 mg/ml enzyme solution
[5] = Example 6 reaction (iii): 0.1 mg/ml enzyme solution
[6] = Example 6 reaction (iv): 0.01 mg/ml enzyme solution
[7] = Example 6 reaction (v): no-trypsin control
[8] = Example 7 reaction (i): incubation at 37° for 60 minutes
[9] = Example 7 reaction (ii): 15 minutes
[10] = Example 7 reaction (iii): 5 minutes
[11] = Example 7 reaction (iv): 2 minutes
[12] = Example 7 reaction (v): 0 minutes no-trypsin control
[13] = positive reaction, 2 μl enzyme (10 mgml^−1), 37° C. for 1 hour

T1 sequence (P00791 60-385): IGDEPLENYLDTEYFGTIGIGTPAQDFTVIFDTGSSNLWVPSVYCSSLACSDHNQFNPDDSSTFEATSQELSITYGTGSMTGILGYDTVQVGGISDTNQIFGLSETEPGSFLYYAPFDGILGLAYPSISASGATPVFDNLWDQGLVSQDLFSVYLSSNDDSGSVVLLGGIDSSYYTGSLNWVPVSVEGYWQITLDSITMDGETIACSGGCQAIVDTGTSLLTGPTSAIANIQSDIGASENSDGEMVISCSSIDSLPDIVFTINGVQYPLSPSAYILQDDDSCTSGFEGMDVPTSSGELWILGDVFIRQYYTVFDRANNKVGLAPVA
T2 sequence (P00761 9-231): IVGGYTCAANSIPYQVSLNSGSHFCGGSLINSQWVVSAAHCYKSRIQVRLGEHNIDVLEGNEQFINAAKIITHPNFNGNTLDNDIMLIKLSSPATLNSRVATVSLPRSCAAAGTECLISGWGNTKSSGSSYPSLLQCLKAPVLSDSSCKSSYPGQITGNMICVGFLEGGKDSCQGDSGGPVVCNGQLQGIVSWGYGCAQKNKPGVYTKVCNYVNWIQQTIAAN

Substance: Fc-BSA: Bovine serum albumin labelled with ferrocene methanoyl groups via N-hydroxysuccinimide ester; estimated 10 to 20 ferrocenes per BSA
- peak height ([1]; no-pepsin control reaction): 4.19×10^−8 A
- peak position ([1]; no-pepsin control reaction): 522 mV
- peak height [1, 2]: 8.90×10^−8 A
- peak position [1, 2]: 537 mV
- peak height (porcine pancreas trypsin; [3]): 5.42×10^−7 A
- peak position (porcine pancreas trypsin; [3]): 430 mV
- peak height (porcine pancreas trypsin; [4]): 2.29×10^−7 A
- peak position (porcine pancreas trypsin; [4]): 428 mV
- peak height (porcine pancreas trypsin; [5]): 1.04×10^−7 A
- peak position (porcine pancreas trypsin; [5]): 429 mV
- peak height (porcine pancreas trypsin; [6]): 7.53×10^8 A
- peak position (porcine pancreas trypsin; [6]): 429 mV
- peak height (porcine pancreas trypsin; [7]): 3.17×10^−9 A
- peak position (porcine pancreas trypsin; [7]): 448 mV
- peak height (porcine pancreas trypsin; [8]): 2.49×10^−7 A
- peak position (porcine pancreas trypsin; [8]): 435 mV
- peak height (porcine pancreas trypsin; [9]): 1.88×10^−7 A
- peak position (porcine pancreas trypsin; [9]): 429 mV
- peak height (porcine pancreas trypsin; [10]): 1.57×10^−7 A
- peak position (porcine pancreas trypsin; [10]): 435 mV
- peak height (porcine pancreas trypsin; [11]): 1.04×10^−7 A
- peak position (porcine pancreas trypsin; [11]): 428 mV
- peak height (porcine pancreas trypsin; [12]): 2.11×10^−8 A
- peak position (porcine pancreas trypsin; [12]): 460 mV
- peak height (porcine pancreas trypsin; no-trypsin control reaction): 2.55×10^−8 A
- peak position (porcine pancreas trypsin; no-trypsin control reaction): 432 mV
- peak height (porcine pancreas trypsin; [13]): 4.58×10^−7 A
- peak position (porcine pancreas trypsin; [13]): 435 mV
- factor by which current observed at 435 mV increases upon digestion (porcine pancreas trypsin; trypsin digestion vs no-trypsin control, FIG. 3): 18
